Patent US20200231684A1 (published 2020)

T1: human IL-36R on cells (human, UniProt Q9HB29 20-575)
T1 sequence (looked up): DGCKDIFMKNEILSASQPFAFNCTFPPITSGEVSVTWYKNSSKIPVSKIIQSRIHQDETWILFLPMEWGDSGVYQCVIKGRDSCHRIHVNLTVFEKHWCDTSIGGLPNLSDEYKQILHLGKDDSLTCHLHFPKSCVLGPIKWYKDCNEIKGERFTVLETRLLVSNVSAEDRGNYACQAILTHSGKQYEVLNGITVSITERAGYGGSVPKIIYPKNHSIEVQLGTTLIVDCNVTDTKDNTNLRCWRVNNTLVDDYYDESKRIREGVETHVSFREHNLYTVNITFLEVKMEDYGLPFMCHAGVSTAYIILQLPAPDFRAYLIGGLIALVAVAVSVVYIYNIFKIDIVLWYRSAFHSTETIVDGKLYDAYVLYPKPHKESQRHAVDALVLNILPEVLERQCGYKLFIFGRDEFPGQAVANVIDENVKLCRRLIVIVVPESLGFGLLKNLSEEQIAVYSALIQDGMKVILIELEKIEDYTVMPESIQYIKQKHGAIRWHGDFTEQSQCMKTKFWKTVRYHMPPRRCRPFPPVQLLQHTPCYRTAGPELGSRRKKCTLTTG

T2: recombinant human IL-36R (ECD) (human, UniProt Q9HB29 20-332)
T2 construct: range 20-332; also called IL-1RL2; IL-1Rrp2
T2 sequence (looked up): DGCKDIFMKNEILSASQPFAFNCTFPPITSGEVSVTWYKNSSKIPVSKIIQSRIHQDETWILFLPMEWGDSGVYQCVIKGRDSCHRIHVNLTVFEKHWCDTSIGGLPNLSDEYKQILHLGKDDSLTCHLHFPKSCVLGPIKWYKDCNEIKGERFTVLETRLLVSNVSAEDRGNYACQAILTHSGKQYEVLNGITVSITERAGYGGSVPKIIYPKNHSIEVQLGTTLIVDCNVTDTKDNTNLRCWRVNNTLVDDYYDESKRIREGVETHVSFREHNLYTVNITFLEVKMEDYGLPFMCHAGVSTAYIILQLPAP

T3: mouse IL-36R (mouse, UniProt Q9ERS7 22-338)
T3 sequence (looked up): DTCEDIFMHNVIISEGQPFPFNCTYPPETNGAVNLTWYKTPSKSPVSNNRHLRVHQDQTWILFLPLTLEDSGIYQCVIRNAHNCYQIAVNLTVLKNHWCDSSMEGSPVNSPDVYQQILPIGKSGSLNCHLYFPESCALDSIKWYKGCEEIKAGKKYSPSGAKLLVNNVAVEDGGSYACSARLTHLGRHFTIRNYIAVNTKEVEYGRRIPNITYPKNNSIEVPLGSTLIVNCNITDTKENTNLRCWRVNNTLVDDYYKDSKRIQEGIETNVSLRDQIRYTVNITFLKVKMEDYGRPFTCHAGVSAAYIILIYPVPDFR

T4: human IL-1R1 (human, UniProt P14778 18-336, limits assumed)
T4 construct: also called IL-1RI
T4 sequence (looked up): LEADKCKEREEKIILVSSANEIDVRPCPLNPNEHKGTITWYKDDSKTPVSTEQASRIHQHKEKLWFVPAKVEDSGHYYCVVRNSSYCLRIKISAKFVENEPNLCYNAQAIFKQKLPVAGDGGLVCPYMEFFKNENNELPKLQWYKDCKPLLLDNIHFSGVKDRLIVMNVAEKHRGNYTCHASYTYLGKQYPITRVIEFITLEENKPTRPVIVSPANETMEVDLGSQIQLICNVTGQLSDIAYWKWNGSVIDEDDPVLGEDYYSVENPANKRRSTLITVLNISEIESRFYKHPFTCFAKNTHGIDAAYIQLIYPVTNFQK


Key:
human IL-36R on cells [1] = molecular target: T1, human IL-36R on cells; assay: cell-based or functional assay
[2] = molecular target: cynomolgus IL-36R on BaF/3 cells (cynomolgus, UniProt A0A2K5WSK9 20-558); assay: cell-based or functional assay
Chain of cynomolgus IL-36R on BaF/3 cells (A0A2K5WSK9 entry or part of it): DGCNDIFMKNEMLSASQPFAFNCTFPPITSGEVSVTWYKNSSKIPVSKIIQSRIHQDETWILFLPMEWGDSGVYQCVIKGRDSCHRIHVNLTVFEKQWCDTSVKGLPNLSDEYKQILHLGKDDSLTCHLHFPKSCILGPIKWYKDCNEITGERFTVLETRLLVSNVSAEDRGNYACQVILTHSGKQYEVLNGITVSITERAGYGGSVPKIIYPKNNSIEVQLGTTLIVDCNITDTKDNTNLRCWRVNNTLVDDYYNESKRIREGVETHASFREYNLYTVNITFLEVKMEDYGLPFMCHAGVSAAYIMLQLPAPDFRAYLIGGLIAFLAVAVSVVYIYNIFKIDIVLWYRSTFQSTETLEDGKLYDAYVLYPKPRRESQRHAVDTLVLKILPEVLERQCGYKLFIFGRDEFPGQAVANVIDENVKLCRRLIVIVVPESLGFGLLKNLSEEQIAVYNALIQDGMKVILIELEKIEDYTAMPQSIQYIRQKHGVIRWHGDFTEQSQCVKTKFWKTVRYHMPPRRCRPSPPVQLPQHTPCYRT

human IL-36R on cells [3] = molecular target: T1, human IL-36R on cells; assay: cell-based or functional assay; remark: listed apart in the source
[4] = molecular target: T2, recombinant human IL-36R (ECD); assay: SPR (ProteOn), single IL-36R surface coat concentration
Description: A) Kinetics and binding affinities of anti-IL-36R antibodies binding to recombinant human IL-36R were measured using the Proteon (Bio-Rad, Hercules, Calif.) using material generated from hybridoma following single column purification. […] Binding of the chimeric anti-IL36R IgGs is equivalent to the respective mouse leads.

mouse IL-36R = molecular target: T3, mouse IL-36R; assay: BLI (Fortebio Octet), antibody injected over antigen surface
Description: (§1) B) Molecular selectivity over mouse IL-36R and human IL-1R1 The mouse and chimeric anti-IL-36R antibodies were also injected over either a mouse IL-36R or a human IL-1R1 surface at a concentration of 100 nM. The binding signal to mouse IL-36R and to human IL-1R1 for these antibodies measured using the Fortebio Octet (Fortebio, Menlo Park, Calif.) is zero, which indicates these antibodies selectively bind to human IL-36R.

human IL-1R1 = molecular target: T4, human IL-1R1; assay: as above
Description: as §1

human IL-36R on cells [5] = molecular target: T1, human IL-36R on cells; assay: flow cytometry, HEK293 cells transfected with full-length human IL-36R
Description: HEK293 cells transfected with full-length human IL-36R or NCI/ADR-RES cells were passaged for 24 hours prior to staining. Cells were removed from flasks by rinsing with 10 ml of 5 mM EDTA in PBS, and then incubated at 37° C. for 10 min with an additional 10 ml of 5 mM EDTA and 2.5 ml of Accumax to declump/disperse cells. Antibodies were then diluted to specified concentrations in PBS+2% BSA, and cells incubated for 20 min at room temperature. Excess antibody was then washed by adding 200 μl of PBS and then centrifuged. Secondary reagent was then added at 50 μl per well and cells are incubated for 15 min at room temperature and then washed as above. Cells were resuspended in 200 μl PBS and analyzed by flow cytometry.

[6] = molecular target: T2, recombinant human IL-36R (ECD); assay: SPR (ProteOn), recombinant human IL-36R at 7 surface densities, global fit
Description: A) Kinetics and binding affinities of anti-IL-36R antibodies binding to recombinant human IL-36R were measured using the Proteon (Bio-Rad, Hercules, Calif.) using material generated from hybridoma following single column purification. […] The binding affinities of the mouse antibodies to human IL-36R run at 7 different surface densities (globally fit) is shown in Table 1. Binding of the chimeric anti-IL36R IgGs is equivalent to the respective mouse leads.

Binder | IC90, GM-CSF release, NCI/ADR-RES cells, trun-IL-36a (human IL-36R on cells [1]) | IC90, GM-CSF release, NCI/ADR-RES cells, trun-IL-36b (human IL-36R on cells [1]) | IC90, GM-CSF release, NCI/ADR-RES cells, trun-IL-36g (human IL-36R on cells [1]) | IC90, IL-6 release, NCI/ADR-RES cells, trun-IL-36a (human IL-36R on cells [1]) | IC90, IL-6 release, NCI/ADR-RES cells, trun-IL-36b (human IL-36R on cells [1]) | IC90, IL-6 release, NCI/ADR-RES cells, trun-IL-36g (human IL-36R on cells [1]) | IC90, IL-8 release, NCI/ADR-RES cells, trun-IL-36a (human IL-36R on cells [1]) | IC90, IL-8 release, NCI/ADR-RES cells, trun-IL-36b (human IL-36R on cells [1]) | IC90, IL-8 release, NCI/ADR-RES cells, trun-IL-36g (human IL-36R on cells [1]) | IC90, pNFκB, NCI/ADR-RES cells, trun-IL-36a (human IL-36R on cells [1]) | IC90, pNFκB, NCI/ADR-RES cells, trun-IL-36b (human IL-36R on cells [1]) | IC90, pNFκB, NCI/ADR-RES cells, trun-IL-36g (human IL-36R on cells [1]) | IC90, pNFκB, BaF/3 cynomolgus IL-36R cells, trun-IL-36a [2] | IC90, pNFκB, BaF/3 cynomolgus IL-36R cells, trun-IL-36b [2] | IC90, pNFκB, BaF/3 cynomolgus IL-36R cells, trun-IL-36g [2] | IC90, IL-8 release, human primary keratinocytes (NHK), trun-IL-36a (human IL-36R on cells [3]) | IC90, IL-8 release, human primary keratinocytes (NHK), trun-IL-36b (human IL-36R on cells [3]) | IC90, IL-8 release, human primary keratinocytes (NHK), trun-IL-36g (human IL-36R on cells [3]) | IC90, pNFκB, human primary keratinocytes (NHK), trun-IL-36a (human IL-36R on cells [3]) | IC90, pNFκB, human primary keratinocytes (NHK), trun-IL-36b (human IL-36R on cells [3]) | also measured
antibody 81B4 (antibody, V domains shown, Mouse monoclonal from hybridoma; also called 81B4E11; Mouse 81B4) VH: QVQLQQPGADFVRPGASMRLSCKASGYSFTSSWIHWVKQRPGQGLEWIGEINPGNVRTNYNENFRNKATLTVDKSSTTAYMQLRSLTSADSAVYYCTVVFYGEPYFPYWGQGTLVTVSA VL: QIVLTQSPAIMSASLGERVTMTCTASSSVSSSYFHWYQQKPGSSPKLWIYRTSNLASGVPGRFSGSGSGTSYSLTISSMEAEDAATYYCHQFHRSPLTFGAGTKLELK | 0.8 nM | 0.3 nM | 0.4 nM | 0.8 nM | 0.3 nM | 0.2 nM | 0.7 nM | 0.2 nM | 0.3 nM | 1.7 nM | 1.4 nM | 1.2 nM | 2.4 nM | 3.5 nM | 5.1 nM | 0.7 nM | 1.2 nM | 0.5 nM | 1.3 nM | 1.1 nM | IC90, pNFκB, human primary keratinocytes (NHK), trun-IL-36g (human IL-36R on cells [3]): 0.5 nM; Kd [4]: < 0.1 nM; binding result (mouse IL-36R): no binding (tested: 100 nM); binding result (human IL-1R1): no binding (tested: 100 nM); EC50 (human IL-36R on cells [5]): 0.302 nM; Kd [6]: 0.024 nM
antibody 78C8 (antibody, V domains shown, Mouse monoclonal from hybridoma; also called 78C8D1; Mouse 78C8) VH: QVQLKESGPVLVAPSQSLSITCTVSGFSLTKFGVHWIRQTPGKGLEWLGVIWAGGPTNYNSALMSRLTISKDISQSQVFLRIDSLQTDDTAMYYCAKQIYYSTLVDYWGQGTSVTVSS VL: DVLLTQTPLSLPVSLGDQASISCRSSQNIVHSNGNTYLQWYLQKPGQSPKLLIYKVSNRFSGVPDRFSGSGSGTDFTLKISRVEAEDLGVYYCFQGSHVPFTFGAGTKLELK | 7.1 nM | 2 nM | 1.7 nM | 14 nM | 5.8 nM | 1.3 nM | 4.7 nM | 1.1 nM | 1.4 nM | 5.8 nM | 6.8 nM | 4.6 nM | 1 nM | 2.1 nM | 1.5 nM | 19.3 nM | 34 nM | 3.6 nM | 11.6 nM | 14.2 nM | IC90, pNFκB, human primary keratinocytes (NHK), trun-IL-36g (human IL-36R on cells [3]): 10.6 nM; Kd [4]: < 0.1 nM; binding result (mouse IL-36R): no binding (tested: 100 nM); binding result (human IL-1R1): no binding (tested: 100 nM); EC50 (human IL-36R on cells [5]): 0.529 nM; Kd [6]: 0.063 nM
antibody 73F6 (antibody, V domains shown, Mouse monoclonal from hybridoma; also called 73F6F8; Mouse 73F6) VH: QVQLKESGPGLVAPSQSLSITCTVSGFSLTNYAVHWVRQFPGKGLEWLGVIWSDGSTDYNAPFKSRLSINKDNSKSQVFFKMNSLQTDDTAIYYCARKGGYSGSWFAYWGQGTLVTVSA VL: DIVMTQSQKFLSTSVGVRVSVTCKASQDVGTNVLWYQQKIGQSPKALIYSASYRHSGVPDRFTGSGSGTDFTLIITNVQSEDLAEYFCQQYSRYPLTFGPGTKLELK | 5.9 nM | 1.7 nM | 1.4 nM | 19 nM | 5.1 nM | 2.2 nM | 3.2 nM | 0.8 nM | 0.9 nM | 2.8 nM | 3 nM | 1.5 nM | 0.5 nM | 0.7 nM | 0.8 nM | 17.8 nM | 26 nM | 2.1 nM | 8.2 nM | 5.2 nM | IC90, pNFκB, human primary keratinocytes (NHK), trun-IL-36g (human IL-36R on cells [3]): 1.3 nM; Kd [4]: < 0.1 nM; binding result (mouse IL-36R): no binding (tested: 100 nM); binding result (human IL-1R1): no binding (tested: 100 nM); EC50 (human IL-36R on cells [5]): 0.746 nM; Kd [6]: 0.025 nM
